Measurements reported in the supplement of paper PMC9170038.

System: MS2 coat protein
Test: apparent KD of MS2 coat protein; designed switch direction (-1 OFF switch, 1 ON switch): -1; higher = weaker reporter binding
Method in brief: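 The reported apparent KD is a per-design median over clusters, from curve fits of normalised cluster fluorescence. Protein titrations used SNAP-549-labelled MS2 coat protein, doubled from 0.7 or 1.5 nM to 3 µM, in Tris-HCl pH 7.5 buffer with KCl, MgCl2, BSA, DTT, tRNA and Tween-20, with no input, 200 uM small-molecule ligand, or an oligonucleotide input. The RNA switches were transcribed on Illumina chips by stalled E. coli RNA polymerase.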

[1] = Eterna round: R95, input ligand: FMN 200 uM
[2] = Eterna round: R95, input ligand: microRNA oligo, concentration not stated
[3] = Eterna round: R95, input ligand: none
[4] = input ligand: microRNA oligo, concentration not stated

| Sequence | apparent KD of MS2 coat protein [1] | apparent KD of MS2 coat protein [2] | apparent KD of MS2 coat protein [3] | apparent KD of MS2 coat protein (input ligand: FMN 200 uM) | apparent KD of MS2 coat protein (input ligand: none) | apparent KD of MS2 coat protein [4] |
| --- | --- | --- | --- | --- | --- | --- |
| AUGAGCAGACGGAGAUCCAACAUGAGGAUCACCCAUGUCUCAAAAGCUUUUUGCUCAUCUUAUCGUACCUUGGUGCA [Mat - Sensor v3 - turn-off var 1 - JL Mod - D14] (puzzle: Sensor v3, turn-off variant 1) | 0.191 µM | 0.0132 µM | 0.197 µM | – | – | – |
| CAGCACUCAGGAUAUACAUGAGGAUCACCCAUGUGUGAACAAGUGAGUGAUUUCCCAUGUAGAAGGGAGAGAUU [Exclusion 3 S1] (Eterna round: R97, puzzle: Exclusion 3) | – | – | – | 0.183 µM | 0.0982 µM | – |
| CACCGUAACUGAGGAUAUCAAACAUGAGGAUCACCCAUGUAAUAAAUGAGAAUUUCGAAUGUACCUGAGAAGGCAGAAACCGGC [Ostricism 84 - Jieux - Exclusion NG 2] (Eterna round: R96, puzzle: Exclusion NG 2) | – | – | – | – | – | 0.0251 µM |
| CACGGGUAAGGAUAUACAAGUGAGAAAGGUAUGUGCAAAUAACAUGAGGAUCACCCAUGUAGAAGGUACGCCGG [Cearxeen] (puzzle: Exclusion 2) | 0.0271 µM | 0.0169 µM | 0.0149 µM | – | – | – |
| CGAAAGGUAGGAUAUACGAAGAAAAAGGGUAGAAUAAUAACACAUGAGGAUCACCCAUGUAGAAGGACCAAAGG [Mat - Exclusion 2 - Mod of my Tesla design - D12] (puzzle: Exclusion 2) | 0.0133 µM | 0.0194 µM | 0.0332 µM | – | – | – |
| ACUGGUGCAGGAUAUACAUGAGGAUCACCCAUGUGAUCAGCAGUCCUCGGACUGCAAUGUAGAAGGGCACCAGU [E3/1-D1] (Eterna round: R97, puzzle: Exclusion 3) | – | – | – | 0.105 µM | 0.804 µM | – |
| CAAUAACAAGCAGGAUCCUACAUGAGGAUCACCCAUGUGCUCGUCUUAUAAAGUACUAUCACGAAAGUGAUAGUACA [Mat - Sensor v3 - turn-off var 1 - Eli Mod - D71] (puzzle: Sensor v3, turn-off variant 1) | 0.19 µM | 0.0586 µM | 0.396 µM | – | – | – |
| CCCUGCAACUGAGGAUAUCACGGACACCGACGUUGAGAAGGCAGACAUGAGGAUCACCCAUGUGAUUUCUCAAUGCUAAACAUU (Eterna round: R96, puzzle: Exclusion NG 1) | – | – | – | 0.0664 µM | 0.0368 µM | 0.0296 µM |
| UCGAUGUGAGGAUAUAUUUUUAUUAGUCCUUAUGUUUUAUAACUUGAGGAUCACCCAAGUAGAAGGCGCUACGU [JR_Ex2_Sub062] (Eterna round: R97, puzzle: Exclusion 2) | – | – | – | 0.0255 µM | 0.0409 µM | – |
| ACAAGCUAUCUCUUAUCUUACAUGAGGAUCACCCAUGUUUUUUCAAUUUUGUUUGGUCUCCUUUGUGCUCGUCUUAU [JR_STOV1_Sub053] (Eterna round: R97, puzzle: Sensor, turn-off variant 1) | – | – | – | 0.0532 µM | 0.0552 µM | – |
| CCUCCGGUGCGAGGAUAUCUGGCGGCCGCCGGUGGAGAAGGCGUACAUGAGGAUCACCCAUGUCCAGCGUGCUCCUCGCUGGUU [0.15] (Eterna round: R96, puzzle: Exclusion NG 1) | – | – | – | 0.075 µM | 0.031 µM | 0.0199 µM |
| UAAUACAAGUAAGGAUUCUACAUGAGGAUCACCCAUGUGCUCGUCUUAUAAAGUACUAUCACGAAAGUGAUAGUACA [Mat - Sensor v3 - turn-off var 1 - Eli Mod - D99] (puzzle: Sensor v3, turn-off variant 1) | 0.0235 µM | 0.148 µM | 0.0264 µM | – | – | – |
| GUUGUUUAUGUAGGAUAUGCCUGGCGUGCCUUUGCAGAAGGACAUGAGGAUCACCCAUGUAACAUGAGGCUCACCCAUGUCGCA [salish99_ExNG1_r04_109] (Eterna round: R96, puzzle: Exclusion NG 1) | – | – | – | 0.758 µM | 0.599 µM | 0.244 µM |
| CCAACCAGAGGAUAUGCGAAUAAAUAAAACUUUUUUUUUUAACAUGAGGAUCACCCAUGUAGAAGGCUGCAACC [Ex2 #39] (Eterna round: R97, puzzle: Exclusion 2) | – | – | – | 0.032 µM | 0.0348 µM | – |
| GACUGCCGAGGAUAUACAUGAGGAUCACCCAUGUGCUUCAGCAUCGAAAGAUGCAUGGGUAGAAGGCGGUAGUC [LRO-Excl3-11] (puzzle: Exclusion 3) | – | 0.0254 µM | – | – | – | – |
| AUAAUGUCAGGAUAUCAGUCGUACAGCUUCGGCUGUACGACUGAGAAGGGACAUGAGGAUCACCCAUGUGGUCA [E4/6-A1] (Eterna round: R97, puzzle: Exclusion 4) | – | – | – | 0.061 µM | 0.0509 µM | – |
| UAUUCUAGAUAGGAUAUACUUUAUUUUUUUUUCGUAGAAGGAUCUACAUGAGGAUCACCCAUGUUAACAGCAGU [JR_E6_Sub009] (puzzle: Exclusion 6) | – | 0.0505 µM | – | – | – | – |

| Sequence | apparent KD of MS2 coat protein [1] | apparent KD of MS2 coat protein [2] | apparent KD of MS2 coat protein [3] | apparent KD of MS2 coat protein (input ligand: FMN 200 uM) | apparent KD of MS2 coat protein (input ligand: none) | apparent KD of MS2 coat protein [4] |
| --- | --- | --- | --- | --- | --- | --- |
| UUUACAAGCUAAAGAUCCCACAUGAGGAUCACCCAUGUUGCUGCCGGUGACGGUAGCAUAACUUUUGCUCGUCUUAU [JL TOV1 3.59] (Eterna round: R97, puzzle: Sensor, turn-off variant 1) | – | – | – | 0.278 µM | 0.342 µM | – |
| UACGAGCUAGGAUAUGCUUUGGGCUCGCUUUCCUUCGAUAAACUUGAGGAUCACCCAAGUAGAAGGAGCUUGUA [Mod 33 - Jieux - Exclusion 2] (Eterna round: R97, puzzle: Exclusion 2) | – | – | – | 0.0615 µM | 0.0259 µM | – |
| UGCAUGCUAGGAUAUACGGGACAUUAGGGUUUGUCGUGUGGACAUGAGGAUCACCCAUGUAGAAGGAGCGUGCU [Mod2 of JL-ex2-2.15 mat747 mod] (puzzle: Exclusion 2) | – | 0.0436 µM | – | – | – | – |
| CUAGAUCUUCGGAUCUAGGACAUGAGGAUCACCCAUGUCACGAGCAGAUCCUCAUGCAAGCUUUUUGCUCGUCUUAU [Sensor v3 - Turn-off variant 1 - 36] (puzzle: Sensor v3, turn-off variant 1) | 0.133 µM | 0.0174 µM | 0.0701 µM | – | – | – |
| AGUACUUUCACGAAAGUGAAAGUACAAUAAGCUUGUGGAACAUGAGGAUCACCCAUGUCCUCAUAAGCUCGUCUUAU [Mat - Sensor v3 - Turn-off var 2 - D32] (puzzle: Sensor v3, turn-off variant 2) | 0.0173 µM | 0.0725 µM | 0.0155 µM | – | – | – |
| UGUACUAACACGAUAGUGUUAGUACAAUAAGCUUGUGUUACAUGAGGAUCACCCAUGUCCUCAUAAGCUCGUCUUAU [Mat - Sensor v3 - Turn-off var 2 - D55] (puzzle: Sensor v3, turn-off variant 2) | 0.109 µM | 0.141 µM | 0.105 µM | – | – | – |
| GUAGCCCGAGGAUAUACAUGAGGAUCACCCAUGUAUCGUUCGAGAAGACUCGGCCCGUGUAGAAGGCGGUAUCC [Eternabot (L1) Solution 22] (Eterna round: R97, puzzle: Exclusion 3) | – | – | – | 0.0253 µM | 0.0231 µM | – |
| UUCAUGUGAGGAUAUAGUACUCCUUCUAUUAUUAUUGAGUAUUAGAAGGCACAUGAGGAUCACCCAUGUAGUAC [Ex4 - 3 - 40] (puzzle: Exclusion 4) | – | 0.0243 µM | – | – | – | – |
| CCGAGCAGACGGAGAUCCAACAUGAGGAUCACCCAUGUCUCAAAAGCUUUUUGCUUGUCUUAUUCUCCUCUGUUCUC [Qureorxe] (puzzle: Sensor v3, turn-off variant 1) | 0.0125 µM | 0.0292 µM | 0.0113 µM | – | – | – |
| GGUAGAGUGGUAGGAUAUCCGACUGUUUCAGACGGAGAAGGACCACAGUCACUGGGUCCAAAUAUCAUGGAGACCUGAUCUACC [pwkr exNG1 F6.8] (Eterna round: R96, puzzle: Exclusion NG 1) | – | – | – | 0.983 µM | 0.634 µM | 0.556 µM |
| GUCUGCACGCUGCGGUCCUACAUGAGGAUCACCCAUGUGGUCUGGUGGCGUGGGUCACCGGACUUGGCUCGUCUUGC [salish99_S_TOV1_R5_052] (Eterna round: R97, puzzle: Sensor, turn-off variant 1) | – | – | – | 0.0191 µM | 0.0189 µM | – |
| GGCAUCGGAGGAUAUAUUUAUGGUGAUACCGGAAGCUUUCUACUUGAGGAUCACCCAAGUAGAAGGCCGAUGCC [jl-ex2.4.85 ViennaUCT mod] (Eterna round: R97, puzzle: Exclusion 2) | – | – | – | 0.0395 µM | 0.0137 µM | – |
| GCAAGCUUUUGCUCGUCUUACAUGAGGAUCACCCAUGUCGGGUGCUUGCUUCGGGCCCGGGCCUCCCGGGCCCGGGC [-43.3, -67 kcal, A 10%] (Eterna round: R97, puzzle: Sensor, turn-off variant 1) | – | – | – | 0.0618 µM | 0.0663 µM | – |
| CCUCUACAUGAGGAUCACCCAUGUGAGGAUAUCCUGCGAGGAUCAAAAGAUCCUCGUGGGAGAAGGCAUAUGCA [Omei Ex1 A5] (Eterna round: R97, puzzle: Exclusion 1) | – | – | – | 0.0222 µM | 0.021 µM | – |
| CCGUUGUCAGGAUAUCGUGCAUACAACGAAAGUUCUAUGUGCGAGAAGGGACAUGAGGAUCACCCAUGUUACGG [Omei Ex4 A1] (Eterna round: R97, puzzle: Exclusion 4) | – | – | – | 0.0903 µM | 0.0412 µM | – |
| UAAUUAAGUGUGAGGAUAUGCUGGUCCUUGGAUCAGCAGAAGGCACAUGAGGAUCACCCAUGUAAUAUAUUUAU [JL bmx4 3.11] (puzzle: Brourd's mod of Exclusion 4) | – | 0.0819 µM | – | – | – | – |
